Assays:
SerRS [1] = molecular target: T1, SerRS (Homo sapiens, UniProt P49591 1-514); test: SPR; HBS-EP pH 7.4, 1:1 fit; EMSA: 20 mM Tris-HCl pH 8.0, 60 mM KCl, 5 mM MgCl2, 0.1 mg/ml BSA, 10 ng/ul poly(dG-dC), 1 mM DTT, 30 min, room temperature; SPR: 10 mM HEPES pH 7.4, 150 mM NaCl, 0.005% P-20; footprint: 20 mM HEPES pH 7.9, 120 mM KCl, 8 mM MgCl2, 0.2 mM EDTA, 0.5 mM DTT, 0.2 mg/ml BSA, 10 ug/ml poly(dG-dC), 5% glycerol, room temperature; conditions: protein: recombinant; tags: C-terminal His tag (pET-20b); chain copies: 2; label: biotin; 3' overhang 3 nt on strand 1
T1 sequence (P49591 whole entry): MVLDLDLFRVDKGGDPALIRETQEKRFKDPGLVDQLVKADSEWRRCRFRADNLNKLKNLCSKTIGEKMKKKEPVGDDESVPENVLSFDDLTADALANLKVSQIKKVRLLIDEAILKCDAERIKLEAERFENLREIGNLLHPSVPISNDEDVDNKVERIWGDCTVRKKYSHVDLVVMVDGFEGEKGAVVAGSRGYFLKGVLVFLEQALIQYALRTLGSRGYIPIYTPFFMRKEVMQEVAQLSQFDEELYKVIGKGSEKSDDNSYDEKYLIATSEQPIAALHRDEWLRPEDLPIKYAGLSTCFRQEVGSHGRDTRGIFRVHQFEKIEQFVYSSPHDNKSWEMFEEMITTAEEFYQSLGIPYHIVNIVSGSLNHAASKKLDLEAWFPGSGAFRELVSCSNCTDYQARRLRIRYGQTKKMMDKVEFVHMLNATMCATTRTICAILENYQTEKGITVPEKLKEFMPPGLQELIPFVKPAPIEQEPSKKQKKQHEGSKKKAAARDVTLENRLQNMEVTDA

c-Myc;MAX = c-Myc;MAX (Homo sapiens;Homo sapiens, UniProt P01106;P61244 16-454;1-160, |); test: EMSA; competed off by SerRS at same concentrations; EMSA: 20 mM Tris-HCl pH 8.0, 60 mM KCl, 5 mM MgCl2, 0.1 mg/ml BSA, 10 ng/ul poly(dG-dC), 1 mM DTT, 30 min, room temperature; SPR: 10 mM HEPES pH 7.4, 150 mM NaCl, 0.005% P-20; footprint: 20 mM HEPES pH 7.9, 120 mM KCl, 8 mM MgCl2, 0.2 mM EDTA, 0.5 mM DTT, 0.2 mg/ml BSA, 10 ug/ml poly(dG-dC), 5% glycerol, room temperature; conditions: protein: recombinant;recombinant; tags: C-terminal His tag;C-terminal His tag; label: 5' 32P
Sequence of c-Myc;MAX (P01106 16-454, chain 1 of 2): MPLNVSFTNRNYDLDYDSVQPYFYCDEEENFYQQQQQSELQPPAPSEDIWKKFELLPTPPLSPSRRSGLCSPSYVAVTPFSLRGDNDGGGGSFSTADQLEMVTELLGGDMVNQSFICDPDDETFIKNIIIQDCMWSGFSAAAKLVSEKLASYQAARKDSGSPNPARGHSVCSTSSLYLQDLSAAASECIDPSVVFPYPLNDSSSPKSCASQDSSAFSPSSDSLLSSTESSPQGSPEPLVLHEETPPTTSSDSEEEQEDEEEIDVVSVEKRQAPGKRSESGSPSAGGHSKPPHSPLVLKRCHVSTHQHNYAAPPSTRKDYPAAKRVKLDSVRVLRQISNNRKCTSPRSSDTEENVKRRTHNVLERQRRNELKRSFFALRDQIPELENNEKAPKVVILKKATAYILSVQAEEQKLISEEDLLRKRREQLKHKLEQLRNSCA
Sequence of c-Myc;MAX (P61244 whole entry, chain 2 of 2): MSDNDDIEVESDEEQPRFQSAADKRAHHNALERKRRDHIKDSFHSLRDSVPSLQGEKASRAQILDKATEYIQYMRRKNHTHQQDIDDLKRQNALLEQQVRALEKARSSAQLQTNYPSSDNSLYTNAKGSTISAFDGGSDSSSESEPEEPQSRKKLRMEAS

MAX = MAX (Homo sapiens, UniProt P61244 1-160); test: EMSA; MAX/MAX homodimer, not displaced by SerRS; EMSA: 20 mM Tris-HCl pH 8.0, 60 mM KCl, 5 mM MgCl2, 0.1 mg/ml BSA, 10 ng/ul poly(dG-dC), 1 mM DTT, 30 min, room temperature; SPR: 10 mM HEPES pH 7.4, 150 mM NaCl, 0.005% P-20; footprint: 20 mM HEPES pH 7.9, 120 mM KCl, 8 mM MgCl2, 0.2 mM EDTA, 0.5 mM DTT, 0.2 mg/ml BSA, 10 ug/ml poly(dG-dC), 5% glycerol, room temperature; conditions: protein: recombinant; tags: C-terminal His tag; chain copies: 2; label: 5' 32P
Sequence of MAX (P61244 whole entry): as the sequence (P61244 whole entry, chain 2 of 2) above

SerRS [2] = molecular target: T1, SerRS; test: EMSA; 5 mM Mg2+; EMSA: 20 mM Tris-HCl pH 8.0, 60 mM KCl, 5 mM MgCl2, 0.1 mg/ml BSA, 10 ng/ul poly(dG-dC), 1 mM DTT, 30 min, room temperature; SPR: 10 mM HEPES pH 7.4, 150 mM NaCl, 0.005% P-20; footprint: 20 mM HEPES pH 7.9, 120 mM KCl, 8 mM MgCl2, 0.2 mM EDTA, 0.5 mM DTT, 0.2 mg/ml BSA, 10 ug/ml poly(dG-dC), 5% glycerol, room temperature; conditions: protein: recombinant; tags: C-terminal His tag (pET-20b); chain copies: 2; label: 5' 32P
SerRS [3] = molecular target: T1, SerRS; test: EMSA; minimal binding site; EMSA: 20 mM Tris-HCl pH 8.0, 60 mM KCl, 5 mM MgCl2, 0.1 mg/ml BSA, 10 ng/ul poly(dG-dC), 1 mM DTT, 30 min, room temperature; SPR: 10 mM HEPES pH 7.4, 150 mM NaCl, 0.005% P-20; footprint: 20 mM HEPES pH 7.9, 120 mM KCl, 8 mM MgCl2, 0.2 mM EDTA, 0.5 mM DTT, 0.2 mg/ml BSA, 10 ug/ml poly(dG-dC), 5% glycerol, room temperature; conditions: protein: recombinant; tags: C-terminal His tag (pET-20b); chain copies: 2; label: 5' 32P
SerRS [4] = molecular target: T1, SerRS; test: EMSA; interaction not affected; EMSA: 20 mM Tris-HCl pH 8.0, 60 mM KCl, 5 mM MgCl2, 0.1 mg/ml BSA, 10 ng/ul poly(dG-dC), 1 mM DTT, 30 min, room temperature; SPR: 10 mM HEPES pH 7.4, 150 mM NaCl, 0.005% P-20; footprint: 20 mM HEPES pH 7.9, 120 mM KCl, 8 mM MgCl2, 0.2 mM EDTA, 0.5 mM DTT, 0.2 mg/ml BSA, 10 ug/ml poly(dG-dC), 5% glycerol, room temperature; conditions: protein: recombinant; tags: C-terminal His tag (pET-20b); chain copies: 2; label: 5' 32P

B1: VEGFA promoter SPR duplex (dsDNA)
DNA 1: GGCGGGGCGGAGCCATGCGCCCCCCCCTTTATA
DNA 2: AAAGGGGGGGGCGCATGGCTCCGCCCCGCC
modifications: 3' biotin on strand 1
Kd (SerRS [1]): 265 nM

B2: VEGFA promoter 27-bp (-62 to -36) (dsDNA)
DNA 1: GGCGGGGCGGAGCCATGCGCCCCCCCC
DNA 2: GGGGGGGGCGCATGGCTCCGCCCCGCC
binding result (c-Myc;MAX): binds | binding result (MAX): binds | Kd (SerRS [2]): 212 nM

B3: VEGFA minimal SerRS site (-59 to -38) (dsDNA)
DNA 1: GGGCGGAGCCATGCGCCCCCCC
DNA 2: GGGGGGGCGCATGGCTCCGCCC
binding result (SerRS [3]): binds

B4: 27-bp E-box double mutant CTTACG (dsDNA)
DNA 1: GGCGGGGCGGAGCCTTACGCCCCCCCC
DNA 2: GGGGGGGGCGTAAGGCTCCGCCCCGCC
binding result (SerRS [4]): binds

From publication PMC4057782, “tRNA synthetase counteracts c-Myc to develop functional vasculature”
